Experimental data published in publication PMC7132122.

Experiments:
[1] = molecular target: DHX15ΔN;NKRF G-patch V582G (Homo sapiens;Homo sapiens, UniProt O43143;O15226 113-795;541-603, |V582G); assay: fluorescence polarization
[2] = molecular target: DHX15ΔN;NKRF G-patch wt (Homo sapiens;Homo sapiens, UniProt O43143;O15226 113-795;541-603, |); assay: fluorescence polarization
Sequence of DHX15ΔN;NKRF G-patch wt (O43143 113-795, stated change not applied, chain 1 of 2): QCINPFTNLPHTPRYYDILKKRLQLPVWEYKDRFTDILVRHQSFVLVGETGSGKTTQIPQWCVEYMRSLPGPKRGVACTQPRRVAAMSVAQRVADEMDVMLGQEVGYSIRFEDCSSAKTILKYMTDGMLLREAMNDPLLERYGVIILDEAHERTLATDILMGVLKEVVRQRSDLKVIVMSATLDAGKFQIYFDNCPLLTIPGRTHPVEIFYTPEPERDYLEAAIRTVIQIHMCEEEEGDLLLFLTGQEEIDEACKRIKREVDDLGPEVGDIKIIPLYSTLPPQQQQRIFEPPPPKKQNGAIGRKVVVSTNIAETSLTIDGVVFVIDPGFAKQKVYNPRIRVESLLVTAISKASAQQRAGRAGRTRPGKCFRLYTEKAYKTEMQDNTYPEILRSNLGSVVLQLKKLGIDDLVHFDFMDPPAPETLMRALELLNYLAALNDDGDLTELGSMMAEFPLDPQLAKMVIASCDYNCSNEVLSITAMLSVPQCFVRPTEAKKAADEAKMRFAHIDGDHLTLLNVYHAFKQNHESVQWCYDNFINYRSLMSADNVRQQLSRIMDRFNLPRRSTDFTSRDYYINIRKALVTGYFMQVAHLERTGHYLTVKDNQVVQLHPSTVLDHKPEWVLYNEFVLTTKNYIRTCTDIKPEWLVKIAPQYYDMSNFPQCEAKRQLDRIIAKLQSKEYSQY
Sequence of DHX15ΔN;NKRF G-patch wt (O15226 541-603, stated change not applied, chain 2 of 2): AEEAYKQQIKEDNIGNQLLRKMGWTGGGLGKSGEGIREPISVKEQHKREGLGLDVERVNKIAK

Sequence of DHX15ΔN;NKRF G-patch V582G (O43143 113-795, chain 1 of 2): as the sequence (O43143 113-795, stated change not applied, chain 1 of 2) above
Sequence of DHX15ΔN;NKRF G-patch V582G (O15226 541-603 V582G, chain 2 of 2): as the sequence (O15226 541-603, stated change not applied, chain 2 of 2) above, with V42G counted along it

B1: FAM-U12 RNA (ssRNA)
RNA: UUUUUUUUUUUU
With B1 the binding signal [1] was 1.2 fold increase of affinity and the binding signal [2] was ~1 fold of Kd without nucleotide.
